Measurements: publication PMC12155224, “Rare missense variants of the leukocyte common antigen related receptor (LAR) display reduced activity in transcellular adhesion and synapse formation” (Research Square, 2025)
Blank lines part the entries; values can stand above or below the molecule they belong to.

How the values were obtained:
[1] = molecular target: LAR V389M, full length (human) (UniProt P10586)
[2] = molecular target: LAR P381L, full length (human) (UniProt P10586)
[3] = molecular target: LAR P417L, full length (human) (UniProt P10586)
[4] = molecular target: T1, NGL-3 ECD (extracellular domain of Netrin-G ligand 3, Fc cleaved off) (UniProt Q9NT99 36-576); test: MST; His-tagged LAR FN1–4 labelled with RED-tris-NTA, 100 nM; NGL-3 in 1:1 dilution series; 25 mM HEPES pH 7.5, 150 mM NaCl, 0.005 % Tween20; 1 h at RT; Monolith NT.115, medium MST power; MST on time 2.5 s; 1:1 KD model; conditions: both partners purified
T1 construct: after cleavage LEVLFQ should remain at the C-terminus (surmised); source: ExpiCHO-S, purified (Protein A, Fc cleaved off with 3C protease, SEC); not shown: Fc, C-terminal, cleaved
T1 sequence (looked up): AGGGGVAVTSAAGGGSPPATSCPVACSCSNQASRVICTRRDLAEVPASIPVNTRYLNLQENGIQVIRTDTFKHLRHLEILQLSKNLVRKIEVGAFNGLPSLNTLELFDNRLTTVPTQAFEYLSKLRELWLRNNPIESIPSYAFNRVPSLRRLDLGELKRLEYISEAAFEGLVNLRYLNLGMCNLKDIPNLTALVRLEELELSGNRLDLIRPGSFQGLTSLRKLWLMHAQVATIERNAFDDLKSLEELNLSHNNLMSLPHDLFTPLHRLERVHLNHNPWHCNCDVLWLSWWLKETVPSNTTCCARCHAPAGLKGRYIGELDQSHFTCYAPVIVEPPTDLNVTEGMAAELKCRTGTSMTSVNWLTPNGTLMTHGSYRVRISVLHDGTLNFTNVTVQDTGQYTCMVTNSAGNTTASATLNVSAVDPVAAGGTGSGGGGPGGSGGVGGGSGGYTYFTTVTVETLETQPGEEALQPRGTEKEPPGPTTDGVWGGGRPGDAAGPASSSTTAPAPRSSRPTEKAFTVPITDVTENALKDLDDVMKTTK

cell aggregation index: HEK293T cells with LAR variant + mCherry mixed with HEK293T cells with NGL-3 (NGL-3-CFP, whole on cells, not the Fc fusion) + GFP; decrease against WT LAR [1]: > 50 % decrease
cell aggregation index: HEK293T cells with LAR variant + mCherry mixed with HEK293T cells with NGL-3 (NGL-3-CFP, whole on cells, not the Fc fusion) + GFP; decrease against WT LAR [2]: > 50 % decrease
cell aggregation index: HEK293T cells with LAR variant + mCherry mixed with HEK293T cells with NGL-3 (NGL-3-CFP, whole on cells, not the Fc fusion) + GFP; decrease against WT LAR [3]: > 50 % decrease
Molecule: NGL-3-Fc (soluble fusion of the NGL-3 extracellular domain with Fc) (from UniProt Q9NT99 36-576)

Kd [4]: 3.68 µM
B1: LAR FN1–4 WT (recombinant fibronectin III domains 1–4 of human LAR) (domain or fragment)
chain: PKPPIDLVVTETTATSVTLTWDSGNSEPVTYYGIQYRAAGTEGPFQEVDGVATTRYSIGGLSPFSEYAFRVLAVNSIGRGPPSEAVRARTGEQAPSSPPRRVQARMLSASTMLVQWEPPEEPNGLVRGYRVYYTPDSRRPPNAWHKHNTDAGLLTTVGSLLPGITYSLRVLAFTAVGDGPPSPTIQVKTQQGVPAQPADFQAEVESDTRIQLSWLLPPQERIIMYELVYWAAEDEDQQHKVTFDPTSSYTLEDLKPDTLYRFQLAARSDMGVGVFTPTIEARTAQSTPSAPPQKVMCVSMGSTTVRVSWVPPPADSRNGVITQYSVAYEAVDGEDRGRHVVDGISREHSSWDLVGLEKWTEYRVWVRAHTDVGPGPESSPVLVRTDED
modifications: RED-tris-NTA 2nd generation dye on the His tag
notes: leukocyte common antigen related receptor (LAR, PTPRF), human, FN1–4 domains; TEV cleavage site between the His tag and the domains; also called WT LAR FN1–4; LAR FN1–4 domain; source: E. coli BL21(DE3), purified (HisTrap HP or Talon beads, SEC); not shown: His6, N-terminal, kept
